One block for each molecule: values may come before it. Where no end group is shown, it is not given here. [ ]: non-standard residue; d: D form. pS = N[C@@H](COP(=O)(O)O)C(=O)O
Assays:
Myc-14-3-3γ wild type = Myc-14-3-3γ wild type (UniProt P61981); assay: co-IP; HEK-293T cells co-transfected with FLAG-LRRK2 (wild type or mutant) and Myc-14-3-3; immunoprecipitation with anti-Myc antibody overnight, washes with modified RIPA buffer (300 mM NaCl); blot with anti-FLAG; Figure 5C quantified with LI-COR Odyssey
GST-14-3-3γ = target: T1, GST-14-3-3γ (UniProt P61981 1-247); assay: pull-down; competition: synthetic peptide at various concentrations added to brain lysate of FLAG-LRRK2 Wt transgenic mice for 1 hour, then GST-14-3-3γ beads for 4 hours; read-out is the FLAG-LRRK2 pulled down; settings: both partners purified
T1 construct: 14-3-3 gamma; also called purified GST-14-3-3γ; Sepharose bead-conjugated GST-14-3-3γ; source: bacteria (100 µM IPTG, 4 hours at 37°C), purified following the manufacturer's instruction (GE Healthcare)
T1 sequence (looked up): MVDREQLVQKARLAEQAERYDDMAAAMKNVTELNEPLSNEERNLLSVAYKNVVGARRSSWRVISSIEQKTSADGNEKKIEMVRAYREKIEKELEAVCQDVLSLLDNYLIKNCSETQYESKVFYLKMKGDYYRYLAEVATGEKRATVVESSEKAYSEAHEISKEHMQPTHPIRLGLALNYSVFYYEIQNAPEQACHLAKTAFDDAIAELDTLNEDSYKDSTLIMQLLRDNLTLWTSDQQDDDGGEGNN

reduction of co-immunoprecipitation with Myc-14-3-3γ compared to wild type LRRK2 (Myc-14-3-3γ wild type): < 20%
Molecule: FLAG-LRRK2 G2019S mutant, Q5S006 1-2527

reduction of co-immunoprecipitation with Myc-14-3-3γ compared to wild type LRRK2 (Myc-14-3-3γ wild type): 90%
Molecule: FLAG-LRRK2 S935A mutant (from UniProt Q5S006 1-2527) (natural protein)

binding result (GST-14-3-3γ): binds
B1: phospho-peptide QRHSNpSLGPC (containing pS935 of LRRK2) (peptide)
peptide: Ac-QRHSN[pS]LGPC
notes: stretch of LRRK2 around S935; C-terminal cysteine printed only in the methods; The results print the peptide without the last C (QRHSNpSLGP); the methods print QRHSNpSLGPC; also called pS935-containing peptide; phosphorylated peptide (pS935); source: synthetic peptide (The Rockefeller University Proteomics Resource Center, HPLC purified)

Reference: article PMC3046972, “Phosphorylation-Dependent 14-3-3 Binding to LRRK2 Is Impaired by Common Mutations of Familial Parkinson's Disease” (PLoS ONE, 2011)
